Results as given in patent publication US20260275312, “CRISPR NUCLEASE POLYPEPTIDES AND GENE EDITING SYSTEMS COMPRISING SUCH” (ARBOR BIOTECHNOLOGIES, INC., published 2026).

T1: Nuclease S H280R/T72R/I845R (synthetic construct, H280R,T72R,I845R)
T1 chain: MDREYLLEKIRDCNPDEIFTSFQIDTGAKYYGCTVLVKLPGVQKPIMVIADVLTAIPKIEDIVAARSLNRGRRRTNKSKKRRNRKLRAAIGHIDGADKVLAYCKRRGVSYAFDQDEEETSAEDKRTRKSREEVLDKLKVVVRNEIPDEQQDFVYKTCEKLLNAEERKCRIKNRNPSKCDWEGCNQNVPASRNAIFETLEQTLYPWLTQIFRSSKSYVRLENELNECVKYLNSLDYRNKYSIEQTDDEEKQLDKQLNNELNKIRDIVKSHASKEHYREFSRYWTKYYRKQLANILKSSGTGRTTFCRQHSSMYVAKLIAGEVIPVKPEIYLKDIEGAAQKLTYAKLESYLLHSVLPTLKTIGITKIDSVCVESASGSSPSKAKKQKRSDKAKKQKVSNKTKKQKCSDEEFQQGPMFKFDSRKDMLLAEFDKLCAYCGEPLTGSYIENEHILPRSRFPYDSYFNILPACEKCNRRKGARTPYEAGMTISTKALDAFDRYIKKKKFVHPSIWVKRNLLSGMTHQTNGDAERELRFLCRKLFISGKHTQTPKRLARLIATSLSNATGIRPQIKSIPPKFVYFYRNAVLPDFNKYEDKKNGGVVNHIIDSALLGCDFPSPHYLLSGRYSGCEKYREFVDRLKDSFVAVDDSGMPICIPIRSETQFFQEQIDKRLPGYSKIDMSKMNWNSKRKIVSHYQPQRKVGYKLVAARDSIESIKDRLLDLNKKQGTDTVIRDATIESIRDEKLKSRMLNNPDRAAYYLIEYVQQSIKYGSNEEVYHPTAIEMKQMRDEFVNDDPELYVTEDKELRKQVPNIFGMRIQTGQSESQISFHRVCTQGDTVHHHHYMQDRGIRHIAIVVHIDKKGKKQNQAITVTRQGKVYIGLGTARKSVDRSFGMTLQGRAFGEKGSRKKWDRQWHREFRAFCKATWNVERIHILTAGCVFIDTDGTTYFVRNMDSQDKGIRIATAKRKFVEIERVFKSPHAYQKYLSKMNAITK

T2: Nuclease W E715R (synthetic construct, E715R)
T2 chain: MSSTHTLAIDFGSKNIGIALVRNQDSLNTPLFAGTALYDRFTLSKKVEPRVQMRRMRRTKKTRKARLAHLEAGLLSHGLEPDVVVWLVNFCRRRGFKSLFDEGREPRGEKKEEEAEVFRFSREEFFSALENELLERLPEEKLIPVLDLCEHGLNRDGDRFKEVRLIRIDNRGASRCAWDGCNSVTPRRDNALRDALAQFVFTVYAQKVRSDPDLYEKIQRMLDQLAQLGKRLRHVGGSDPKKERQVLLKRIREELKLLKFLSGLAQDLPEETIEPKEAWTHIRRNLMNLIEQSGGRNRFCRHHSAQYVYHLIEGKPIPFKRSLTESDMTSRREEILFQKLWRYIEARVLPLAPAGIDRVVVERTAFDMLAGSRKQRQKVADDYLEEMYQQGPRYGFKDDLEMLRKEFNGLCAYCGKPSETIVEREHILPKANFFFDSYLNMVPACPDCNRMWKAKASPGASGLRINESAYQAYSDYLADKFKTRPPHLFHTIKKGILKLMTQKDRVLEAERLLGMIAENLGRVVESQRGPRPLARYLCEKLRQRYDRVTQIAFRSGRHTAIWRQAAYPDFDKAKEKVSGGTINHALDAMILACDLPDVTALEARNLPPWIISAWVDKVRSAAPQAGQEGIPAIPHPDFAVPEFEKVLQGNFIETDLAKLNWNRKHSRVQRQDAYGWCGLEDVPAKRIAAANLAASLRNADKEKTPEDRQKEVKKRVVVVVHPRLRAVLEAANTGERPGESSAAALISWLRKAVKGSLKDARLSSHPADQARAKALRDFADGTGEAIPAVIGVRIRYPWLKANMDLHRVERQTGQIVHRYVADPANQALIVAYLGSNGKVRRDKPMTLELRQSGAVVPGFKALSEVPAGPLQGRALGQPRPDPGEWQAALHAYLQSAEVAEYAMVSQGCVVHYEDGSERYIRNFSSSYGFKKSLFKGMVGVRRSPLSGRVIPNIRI

B1: S AAVS1-T7 RNA guide ; AAVS1-T7 target (S) (ssRNA ; dsDNA)
RNA: GGCUAUAAUCCAUGCUGACCGUUGUAUUCGGAUGGGAGUAAAAGGUUGAGUACACCUGGAAACAAAACGACAUAAAGGUGUUCUCCCAUCUGUGUACAAAGAGCAGAUAUAUGAGUUGAUAAGUAAUAUGUUGCACGUAUGGACUUUGACAGUCUGUACCUCUGCGUGAAAGACAUAUUGCGUUAUUCAUAUAUCUGUGAGUCUGUUCUAAAUUUAAAGGUUUAGGGAA
DNA 1: GGCTATAATCCATGCTGACC
DNA 2: GGTCAGCATGGATTATAGCC
B2: W EMX1-T5 RNA guide ; EMX1-T5 target (W) (ssRNA ; dsDNA)
RNA: UAAACUACAGUGGUGCCUGGGUUUCAGCUACCCUGAGUUUCUCAACUCCGUUGAGACUUCCUCAGGUUCAAGCUGAAAAGAGCAUCUGUCCGGAAGGACCACUCCGGGUUAGGGCAGACCCGGCUCUUGGGCUUCCUUGGUCUUUGACUCUGGAGGAAACCUUCCGGCGUGUCGCAAGACAAGAUGUGAGCCUG
DNA 1: TAAACTACAGTGGTGCCTGG
DNA 2: CCAGGCACCACTGTAGTTTA

Columns and labels:
[1] = biological target: T1, Nuclease S H280R/T72R/I845R; experiment: cell_activity; HEK293T; PAM AACC; details: tags: N-term SV40 NLS, XTEN linker + C-term nucleoplasmin NLS
Method: HEK293T cells were transfected with plasmids expressing the Nuclease S polypeptides and the gRNAs provided herein following the methods provided in Example 1 above. Gene editing efficiencies were determined by NGS following the methods also provided in Example 1. The NGS results were analyzed also following the methods provided in Example 1 above.
Each Nuclease S variant was cloned as described in Example 6. HEK293T cells were further transfected with a plasmid encoding a Nuclease S variant and a plasmid encoding an RNA guide of Table 11, followed by NGS analysis, as described in Example 5. For each target, indel ratios, referring to the percentage of NGS reads comprising indels, were calculated for the reference Nuclease S (SEQ ID NO: 49) and for each Nuclease S variant. The indel ratios shown in Table 13 were calculated as the average of two bioreplicates, each of which contained two technical replicates.

Nuclease W E715R = biological target: T2, Nuclease W E715R; experiment: cell_activity; HEK293T; PAM AAA; details: tags: N-term SV40 NLS, XTEN linker + C-term nucleoplasmin NLS
Method: Approximately 16 hours prior to transfection, 25,000 HEK293T cells in DMEM/10% FBS+Pen/Strep (D10 media) were plated into each well of a 96-well plate. On the day of transfection, the cells were 50-90% confluent. For each well to be transfected, a mixture of Lipofectamine 2000™ (ThermoFisher Scientific) and Opti-MEM™ (ThermoFisher Scientific) was prepared and incubated at room temperature for 5 minutes (Solution 1). After incubation, the Lipofectamine 2000™:Opti-MEM™ mixture was added to a separate mixture containing the CRISPR nuclease plasmid (NLS-tagged), RNA guide plasmid, and Opti-MEM™ (Solution 2). In the case of negative controls, the CRISPR nuclease plasmid was excluded. Solutions 1 and 2 were mixed by pipetting up and down, then incubated at room temperature for 25 minutes. Following incubation, the Solution 1 and 2 mixture was added dropwise to each well of a 96-well plate containing the cells. Approximately 72 hours post transfection, cells were trypsinized by adding TrypLE™ (Thermo Fisher Scientific) to the center of each well and incubating at 37° C. for approximately 5 minutes. D10 media was then added to each well and mixed to resuspend cells. […]
Cells were transfected, and samples were prepared for NGS as described in Example 1. Indel ratios, referring to the percentage of NGS reads comprising indels, were calculated for the reference and for each variant. […]

Row | Binder | activity [1] [indel ratio] | fold change in indel ratio vs reference (Nuclease W E715R) [fold indel vs reference]
1 | B1 | 0.333 | 
2 | B2 |  | 3.94
